Experimental data taken from IntAct's records for PubMed 36931259.

B1: 14-3-3 protein sigma (Homo sapiens), P31947 (parent)
chain: MERASLIQKAKLAEQAERYEDMAAFMKGAVEKGEELSCEERNLLSVAYKNVVGGQRAAWRVLSSIEQKSNEEGSEEKGPEVREYREKVETELQGVCDTVLGLLDSHLIKEAGDAESRVFYLKMKGDYYRYLAEVATGDDKKRIIDSARSAYQEAMDISKKEMPPTNPIRLGLALNFSVFHYEIANSPEEAISLAKTTFDEAMADLHTLSEDSYKDSTLIMQLLRDNLTLWTADNAGEEGGEAPQEPQS
partner: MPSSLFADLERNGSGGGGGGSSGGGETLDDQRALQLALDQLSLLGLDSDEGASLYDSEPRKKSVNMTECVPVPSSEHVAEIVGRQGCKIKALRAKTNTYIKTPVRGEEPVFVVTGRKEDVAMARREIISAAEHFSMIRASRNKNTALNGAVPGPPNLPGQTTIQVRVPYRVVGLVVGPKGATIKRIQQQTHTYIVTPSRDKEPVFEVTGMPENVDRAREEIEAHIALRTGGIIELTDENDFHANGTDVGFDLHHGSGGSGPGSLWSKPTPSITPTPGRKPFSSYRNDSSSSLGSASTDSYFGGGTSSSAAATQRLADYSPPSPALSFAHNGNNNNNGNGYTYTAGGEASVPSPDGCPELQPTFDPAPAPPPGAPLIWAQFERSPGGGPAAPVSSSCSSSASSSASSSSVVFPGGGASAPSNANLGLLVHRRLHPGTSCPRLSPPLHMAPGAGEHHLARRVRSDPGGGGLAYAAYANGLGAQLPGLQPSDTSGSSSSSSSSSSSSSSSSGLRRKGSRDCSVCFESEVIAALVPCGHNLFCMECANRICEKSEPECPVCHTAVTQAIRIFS
B2: 14-3-3 protein sigma (Homo sapiens), P31947 (parent)
chain: B1 chain
partner: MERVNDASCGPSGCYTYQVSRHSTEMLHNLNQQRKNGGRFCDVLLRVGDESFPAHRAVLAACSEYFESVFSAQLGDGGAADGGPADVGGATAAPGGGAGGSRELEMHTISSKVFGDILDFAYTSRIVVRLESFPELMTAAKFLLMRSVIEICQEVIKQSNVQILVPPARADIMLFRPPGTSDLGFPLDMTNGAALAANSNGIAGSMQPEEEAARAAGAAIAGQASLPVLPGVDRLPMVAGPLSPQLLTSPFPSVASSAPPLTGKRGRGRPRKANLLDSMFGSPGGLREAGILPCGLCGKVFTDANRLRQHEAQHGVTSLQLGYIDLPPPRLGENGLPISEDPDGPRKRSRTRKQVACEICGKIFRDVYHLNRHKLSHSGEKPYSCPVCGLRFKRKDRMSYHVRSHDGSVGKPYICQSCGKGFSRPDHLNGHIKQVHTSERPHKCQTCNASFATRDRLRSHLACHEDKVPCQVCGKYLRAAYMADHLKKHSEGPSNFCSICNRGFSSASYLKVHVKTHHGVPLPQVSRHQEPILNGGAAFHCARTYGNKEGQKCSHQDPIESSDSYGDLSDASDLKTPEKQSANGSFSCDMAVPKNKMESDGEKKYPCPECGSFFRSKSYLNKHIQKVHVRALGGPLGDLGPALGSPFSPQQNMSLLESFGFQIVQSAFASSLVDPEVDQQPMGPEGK
B3: 14-3-3 protein sigma (Homo sapiens), P31947 (parent)
chain: B1 chain
partner: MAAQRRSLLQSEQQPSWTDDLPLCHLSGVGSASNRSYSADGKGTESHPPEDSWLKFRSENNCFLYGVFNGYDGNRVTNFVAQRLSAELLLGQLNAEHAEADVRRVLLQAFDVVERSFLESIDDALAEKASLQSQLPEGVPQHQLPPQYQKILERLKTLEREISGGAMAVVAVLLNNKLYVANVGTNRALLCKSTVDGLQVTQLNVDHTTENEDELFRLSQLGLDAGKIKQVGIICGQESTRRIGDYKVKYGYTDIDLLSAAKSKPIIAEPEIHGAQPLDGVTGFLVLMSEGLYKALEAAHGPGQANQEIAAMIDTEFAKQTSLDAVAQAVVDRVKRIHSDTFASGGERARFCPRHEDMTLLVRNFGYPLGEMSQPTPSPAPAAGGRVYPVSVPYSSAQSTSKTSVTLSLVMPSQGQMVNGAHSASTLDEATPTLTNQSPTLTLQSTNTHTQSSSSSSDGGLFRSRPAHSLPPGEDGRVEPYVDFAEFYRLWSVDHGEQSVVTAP
B4: 14-3-3 protein sigma (Homo sapiens), P31947 (parent)
chain: B1 chain
partner: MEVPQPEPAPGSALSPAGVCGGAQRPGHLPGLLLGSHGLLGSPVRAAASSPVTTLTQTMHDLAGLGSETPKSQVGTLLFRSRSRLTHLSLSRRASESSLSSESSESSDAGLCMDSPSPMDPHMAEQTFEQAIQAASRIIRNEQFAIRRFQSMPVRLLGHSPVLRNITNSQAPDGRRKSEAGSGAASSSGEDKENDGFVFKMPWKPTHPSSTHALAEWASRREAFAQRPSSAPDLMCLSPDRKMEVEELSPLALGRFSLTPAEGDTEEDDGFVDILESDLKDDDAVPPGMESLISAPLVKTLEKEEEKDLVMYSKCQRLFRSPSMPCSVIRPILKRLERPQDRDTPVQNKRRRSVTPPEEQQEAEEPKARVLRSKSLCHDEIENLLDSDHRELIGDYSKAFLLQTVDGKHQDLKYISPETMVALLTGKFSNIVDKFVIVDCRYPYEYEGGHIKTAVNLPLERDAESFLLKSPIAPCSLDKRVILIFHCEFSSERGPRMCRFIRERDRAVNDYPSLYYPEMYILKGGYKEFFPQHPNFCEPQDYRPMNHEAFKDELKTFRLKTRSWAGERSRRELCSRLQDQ
B5: 14-3-3 protein sigma (Homo sapiens), P31947 (parent)
chain: B1 chain
partner: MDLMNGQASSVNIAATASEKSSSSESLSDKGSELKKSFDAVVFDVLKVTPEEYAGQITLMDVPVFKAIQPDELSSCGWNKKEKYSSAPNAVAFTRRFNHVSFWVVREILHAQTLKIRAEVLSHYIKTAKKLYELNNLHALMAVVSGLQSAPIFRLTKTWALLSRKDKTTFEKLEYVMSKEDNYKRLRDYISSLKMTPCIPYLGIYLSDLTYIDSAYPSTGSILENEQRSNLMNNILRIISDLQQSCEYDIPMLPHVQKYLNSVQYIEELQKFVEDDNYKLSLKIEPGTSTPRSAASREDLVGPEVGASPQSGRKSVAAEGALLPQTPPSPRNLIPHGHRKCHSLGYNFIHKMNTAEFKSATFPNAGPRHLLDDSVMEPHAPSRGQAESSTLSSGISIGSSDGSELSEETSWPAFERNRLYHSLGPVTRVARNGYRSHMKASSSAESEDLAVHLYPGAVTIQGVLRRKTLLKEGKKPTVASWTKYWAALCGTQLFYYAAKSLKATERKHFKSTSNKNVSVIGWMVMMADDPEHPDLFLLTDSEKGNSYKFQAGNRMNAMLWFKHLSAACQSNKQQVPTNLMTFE
B6: 14-3-3 protein sigma (Homo sapiens), P31947 (parent)
chain: B1 chain
partner: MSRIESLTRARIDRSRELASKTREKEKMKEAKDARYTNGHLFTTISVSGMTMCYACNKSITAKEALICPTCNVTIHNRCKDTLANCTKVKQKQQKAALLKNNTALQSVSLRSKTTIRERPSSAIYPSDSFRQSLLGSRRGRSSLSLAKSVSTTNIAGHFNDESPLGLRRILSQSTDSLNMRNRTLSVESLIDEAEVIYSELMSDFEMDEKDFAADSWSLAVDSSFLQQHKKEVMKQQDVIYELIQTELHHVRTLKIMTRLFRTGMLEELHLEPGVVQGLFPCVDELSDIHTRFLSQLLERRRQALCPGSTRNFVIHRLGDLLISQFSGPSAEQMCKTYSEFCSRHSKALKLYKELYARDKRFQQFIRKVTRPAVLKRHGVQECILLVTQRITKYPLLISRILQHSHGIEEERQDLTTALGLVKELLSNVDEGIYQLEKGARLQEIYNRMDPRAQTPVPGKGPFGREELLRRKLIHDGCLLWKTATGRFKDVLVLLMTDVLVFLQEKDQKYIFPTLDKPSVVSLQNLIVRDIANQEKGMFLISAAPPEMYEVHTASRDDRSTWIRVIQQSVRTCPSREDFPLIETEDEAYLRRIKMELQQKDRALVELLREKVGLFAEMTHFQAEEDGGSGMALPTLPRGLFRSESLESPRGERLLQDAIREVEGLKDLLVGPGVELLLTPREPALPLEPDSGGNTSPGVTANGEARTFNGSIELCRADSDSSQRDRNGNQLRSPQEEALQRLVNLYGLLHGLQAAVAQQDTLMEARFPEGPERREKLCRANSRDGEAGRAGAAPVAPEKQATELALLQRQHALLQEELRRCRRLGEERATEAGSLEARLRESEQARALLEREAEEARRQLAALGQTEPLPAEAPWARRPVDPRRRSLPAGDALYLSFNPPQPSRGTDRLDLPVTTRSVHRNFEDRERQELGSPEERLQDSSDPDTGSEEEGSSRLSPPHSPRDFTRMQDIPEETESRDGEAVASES

Variants of: B1
Conditions: with mex3b_human MEX3B

| effect of a mutation on the interaction | Variant |
| --- | --- |
| decreasing interaction strength | K49E;R56E;V178D |

Variants of: B2
Conditions: with patz1_human PATZ1, Q9HBE1

| effect of a mutation on the interaction | Variant |
| --- | --- |
| decreasing interaction strength | K49E;R56E;V178D |

Variants of: B3
Conditions: with tab1_human TAB1, Q15750

| effect of a mutation on the interaction | Variant |
| --- | --- |
| decreasing interaction strength | K49E;R56E;V178D |

Variants of: B4
Conditions: with mpip2_human CDC25B

| effect of a mutation on the interaction | Variant |
| --- | --- |
| decreasing interaction strength | K49E;R56E;V178D |

Variants of: B5
Conditions: with rgps2_human RALGPS2, Q86X27

| effect of a mutation on the interaction | Variant |
| --- | --- |
| decreasing interaction strength | K49E;R56E;V178D |

Variants of: B6
Conditions: with arhg2_human ARHGEF2, Q92974

| effect of a mutation on the interaction | Variant |
| --- | --- |
| decreasing interaction strength | K49E;R56E;V178D |
